Data taken from article PMC8670721.

How the values were obtained:
[1] = tested on: LIN28A (LIN28-TAT recombinant protein, Peprotech); experiment: EMSA
[2] = tested on: LIN28A (LIN28-TAT recombinant protein, Peprotech); experiment: filter binding

Q: What does the source list for biotin-labeled pre-let-7a?
A: Kd [1]: 25 nM; Kd [2]: 10 nM
